According to patent US20020137891A1, “Protein scaffold and its use to multimerise monomeric polypeptides” (priority 1999, published 2002):
Like-named read-outs stand apart in the source and are kept apart here.

B1: sht-GroEL (193-335): shortest minichaperone, short histidine tail GroEL residues 193-335 (protein, UniProt P0A6F5 193-335, looked up, fragment)
chain: MQFDRGYLSPYFINKPETGAVELESPFILLADKKISNIREMLPVLEAVAKAGKPLLIIAEDVEGEALATLVVNTMRGIVKVAAVKAPGFGDRRKAMLQDIATLTGGTVISEEIGMELEKATLEDLGQAKRVVINKDTTTIIDG
modifications: short histidine tail
B2: sht-GroEL (191-376): histidine-tagged (short histidine tail; sht) minichaperone GroEL(191-376) (protein, UniProt P0A6F5 191-376, looked up, fragment)
chain: EGMQFDRGYLSPYFINKPETGAVELESPFILLADKKISNIREMLPVLEAVAKAGKPLLIIAEDVEGEALATLVVNTMRGIVKVAAVKAPGFGDRRKAMLQDIATLTGGTVISEEIGMELEKATLEDLGQAKRVVINKDTTTIIDGVGEEAAIQGRVAQIRQQIEEATSDYDREKLQERVAKLAGGV
modifications: short histidine tail
B3: Gp31 (1-111): wild-type bacteriophage T4 Gp31 (gene product), cpn10 family co-chaperonin (protein, UniProt P17313 1-111, looked up)
Capsid assembly protein Gp31: MSEVQQLPIRAVGEYVILVSEPAQAGDEEVTESGLIIGKRVQGEVPELCVVHSVGPDVPEGFCEVGDLTSLPVGQIRNVPHPFVALGLKQPKEIKQKFVTCHYKAIPCLYK
B4: GroES (1-97): E. coli co-chaperone, seven membered ring of 10 kD subunits (protein, UniProt P0A6F9 1-97, looked up)
Co-chaperonin GroES: MNIRPLHDRVIVKRKEVETKSAGGIVLTGSAAAKSTRGEVLAVGNGRILENGEVKPLDVKVGDIVIFNDGYGVKSEKIDNEEVLIMSESDILAIVEA
B5: sht-GroEL (191-345): short histidine tail minichaperone, GroEL residues 191-345 (protein, UniProt P0A6F5 191-345, looked up, fragment)
chain: EGMQFDRGYLSPYFINKPETGAVELESPFILLADKKISNIREMLPVLEAVAKAGKPLLIIAEDVEGEALATLVVNTMRGIVKVAAVKAPGFGDRRKAMLQDIATLTGGTVISEEIGMELEKATLEDLGQAKRVVINKDTTTIIDGVGEEAAIQGR
modifications: short histidine tail
B6: GroEL(191-345): GroEL(191-345) minichaperone monomer (protein, UniProt P0A6F5 191-345, looked up, fragment)
chain: B5 chain
modifications: apical domain
notes: GroEL(191-345) minichaperone monomer

Experiments:
[1] = system: COS-7, PC12, and SH-SY5Y cells; details: cited from earlier work
E. coli SV2 groEL44 = experiment: In vivo complementation of thermosensitive groEL mutant at 43° C., strain SV2; assay type: cell-based; details: for Relative colony forming ability, SV2 groEL44: pJC plasmid, relative to growth at 30° C.
Method: (§1) In vivo complementation experiments. Complementation experiments were performed by transforming electro-competent SV2 or SV6 cells with the pJC series of expression vectors and plating an aliquot of the transformation reactions directly at 43° C. The percentage of viable cells relative to the growth at 30° C. was determined. A representative number of clones which grew at 43° C. were incubated in absence of any selective markers at permissive temperature. After prolonged growth the loss of the pJC plasmids and the ts phenotype were verified. Each experiment was performed in duplicate. Plasmids carrying no groE genes or encoding the GroE proteins were used as negative or positive controls, respectively.

E. coli SV6 groEL673 = experiment: In vivo complementation of thermosensitive groEL mutant at 43° C., strain SV6; assay type: cell-based; details: for Relative colony forming ability, SV6 groEL673: pJC plasmid, relative to growth at 30° C.
Method: as §1

[2] = system: AI90 (ΔgroEL::kan^R) [pBADEL] E. coli strain; experiment: Plating ability of transformed AI90 (ΔgroEL::kan^R) [pBAD-EL] at 37° C. on depletion of GroEL; assay type: cell-based; parameters: key: +++: growth identical to that in presence of 0.2% L(+)arabinose (100%), in terms of both number and size; ++: about 50% of the colonies relative to that in presence of 0.2% L(+)arabinose; +: about 30% of the colonies; +/−: ≦5% of the colonies and size reduced relative to that in presence of 0.2% L(+)arabinose; −: no visible colonies
Method: AI90 (ΔgroEL::kan^R) [pBAD-EL] cells were transformed with the pJC vector series. Transformants were selected at 37° C. on LB supplemented with 50 μg.ml^−1 of kanamycin, 120 μg.mL^−1 of ampicillin, 25 μg.mL^1 of chloramphenicol and 0.2% L(+)arabinose. Depletion of GroEL protein was analysed at 37° C. by plating the same quantity of AI90 [pBAD-EL+pJC vectors] cells on LB plates containing 1% D(+)glucose or various amount of arabinose.
Each experiment was performed in triplicate. Plasmids carrying no groE genes or encoding the GroE proteins were used as negative or positive controls, respectively.

bacteriophage λ (b2cI) = experiment: Growth (plaque formation) of bacteriophage λ at 30° C. in transformed wild-type and groEL mutant strains; assay type: cell-based, E. coli; parameters: key to Growth of bacteriophage λ, SV1 (groEL^+) / Growth of bacteriophage λ, SV2 groEL44: +++: normal plaque-forming ability relative to wild-type groEL^+ strain, in terms of both number and size; ++: 5-fold fewer plaques relative to wild-type groEL^+ strain, or both; 10-fold fewer plaques, or plaque size reduced relative to wild-type groEL^+ strain, or both; +/−: 10^2-fold fewer plaques and plaque size reduced relative to wild-type groEL^+ strain; no visible plaques (<10^−4); details: for Growth of bacteriophage λ, SV1 (groEL^+) / Growth of bacteriophage λ, SV2 groEL44 / Growth of bacteriophage λ, SV3 GroEL59 / Growth of bacteriophage λ, SV6 groEL673: pJC plasmid
From the text: (§2) Bacterial and bacteriophage strains. The E. coli strains used in this study were: C41(DE3), a mutant of BL21(DE3) capable of expressing toxic genes (Miroux, B. & Walker, J. E. (1996) J. Mol. Biol. 260, 289-298); SV2 (B178groEL44), SV3 (B178groEL59) and SV6 (B178groEL673): isogenic strains carrying temperature-sensitive alleles of groEL; SV1(=B178) (Georgopoulos, C., Hendrix, R. W., Casjens, S. R. & Kaiser, A. D. (1973) J. Mol. Biol. 76, 45-60), AI90 (ΔgroEL::kan^R) [pBAD-EL] (Ivic, A., Olden, D., Wallington, E. J. & Lund, P. A. (1997) Gene 194, 1-8), and TG1 (Gibson, T. J. (1984) Ph.D. thesis, University of Cambridge, U.K). Bacteriophage λb2cI (Zeilstra-Ryalls, J., Fayet, O., Baird, L. & Georgopoulos, C. (1993) J. Bacteriol. 175, 1134-1143) was used according to standard methods (Arber, W., Enquist, L., Hohn, B., Murray, N. E. & Murray, K. (1983) in Lambda II., ed. R. W. Hendrix, J. W. r., F. W. Stahl and R. A. Weisberg (Cold Spring Harbor Laboratory, Cold Spring Harbor, N.Y.), pp. 433-466); plaque formation was assayed at 30° C. T4D0, a derivative of bacteriophage T4 (Zeilstra-Ryalls, J., Fayet, O., Baird, L. & Georgopoulos, C. (1993) J. Bacteriol. 175, 1134-1143), was used according to standard methods (Karam, J. D. (1994) Molecular biology of bacteriophage T4. (American Society for Microbiology, Washington, D.C.)); plaque formation was assayed at 37° C.
(§3) Bacteriophage λ requires the chaperonins GroES and GroEL for protein folding during morphogenesis; bacteriophage T4 requires GroEL and Gp31, the latter being encoded by the bacteriophage genome (Zeilstra-Ryalls, J., Fayet, O. & Georgopoulos, C. (1991) Annu. Rev. Microbiol. 45, 301-325). Nine groE alleles which fail to support λ growth have been sequenced (Zeilstra-Ryalls, J., Fayet, O., Baird, L. & Georgopoulos, C. (1993) J. Bacteriol. 175, 1134-1143). We examined the ability of MC7, over-expressed from the constitutive tet promoter on a high-copy number vector (see FIG. 2), to complement three mutant groEL alleles for plaque formation by λ (b2cI) at 30° C. (Table 3) and T4 at 37° C. (Table 4).

bacteriophage T4 (T4D0) [3] = experiment: Growth (plaque formation) of bacteriophage T4 at 37° C. in transformed wild-type and groEL mutant strains; assay type: cell-based, E. coli; parameters: key: +++: normal plaque-forming ability relative to wild-type groEL^+ strain, in terms of both number and size; ++: 5-fold fewer plaques relative to wild-type groEL^+ strain, or both; 10-fold fewer plaques, or plaque size reduced relative to wild-type groEL^+ strain, or both; +/−: 10^2-fold fewer plaques and plaque size reduced relative to wild-type groEL^+ strain; no visible plaques (<10^−4); details: pJC plasmid
From the text: as §2, §3

bacteriophage T4 (T4D0) [4] = experiment: as above; assay type: cell-based, E. coli; details: text prints 30° C. (Table 3)
[5] = system: mutant Huntingdon exon 1-expressing PC12 and SH-SY5Y cells; details: overexpression in PC12 and SH-SY5Y cells; D. Rubinsztein et al.; cited from earlier work

Molecule	Relative colony forming ability, SV2 groEL44 (E. coli SV2 groEL44)	Relative colony forming ability, SV6 groEL673 (E. coli SV6 groEL673)	Growth of bacteriophage λ, SV1 (groEL^+) (bacteriophage λ (b2cI))	Growth of bacteriophage λ, SV2 groEL44 (bacteriophage λ (b2cI))	Growth of bacteriophage λ, SV3 GroEL59 (bacteriophage λ (b2cI))	Growth of bacteriophage λ, SV6 groEL673 (bacteriophage λ (b2cI))	Growth of bacteriophage T4, SV1 (groEL^+) (bacteriophage T4 (T4D0) [3])	Growth of bacteriophage T4, SV2 groEL44 (bacteriophage T4 (T4D0) [3])	Growth of bacteriophage T4, SV3 groEL59 (bacteriophage T4 (T4D0) [3])	Growth of bacteriophage T4, SV6 groEL673 (bacteriophage T4 (T4D0) [3])	also measured
HDJ-2/HSDJ: a human HSP40 homologue											inclusion formation ([1]; overexpression in COS-7 cells): increased inclusion formation; inclusion formation ([1]; overexpression in PC12 and SH-SY5Y cells): did not modify inclusion formation
CC(=O)N[C@@H](CSC(=O)[C@]1([C@@H](O)C(C)C)NC(=O)[C@H](C)[C@@H]1O)C(=O)O [lactacystin]											proportion of cells with inclusions of mutant Huntington exon 1 ([1]; treatment of transfected cells): increased
B1	0.05-0.09	0.03-0.05									Complementation of the groEL44 defect in SV2 (in words) (E. coli SV2 groEL44): complements; Complementation of the groEL673 defect in SV6 (in words) (E. coli SV6 groEL673): less well
B2	<10^−4	<10^−4	+++	− (no visible plaques (<10^−4))	− (no visible plaques (<10^−4))	− (no visible plaques (<10^−4))	+++	− (no visible plaques (<10^−4))	+++	− (no visible plaques (<10^−4))	Plating ability ([2]; 0.00 % L(+)arabinose): −; Plating ability ([2]; 0.01 % L(+)arabinose): +/− (≦5% of the colonies and size reduced relative to that in presence of 0.2% L(+)arabinose); Plating ability ([2]; 0.10 % L(+)arabinose): + (about 30% of the colonies); Plating ability ([2]; 0.15 % L(+)arabinose): ++ (about 50% of the colonies relative to that in presence of 0.2% L(+)arabinose)
B3	0.5 × 10^−3	<10^−4	+++	− (no visible plaques (<10^−4))	− (no visible plaques (<10^−4))	− (no visible plaques (<10^−4))	+++	+++	+++	+++	Effect of over-expression on bacteriophage T4 growth in groEL strains (in words) (bacteriophage T4 (T4D0) [4]): allows T4 growth in all strains
B4	5 × 10^−3	<10^−4	+++	+++	− (no visible plaques (<10^−4))	− (no visible plaques (<10^−4))	+++	+++	+++	− (no visible plaques (<10^−4))	Complementation of groEL mutant strains for bacteriophage λ growth (in words) (bacteriophage λ (b2cI)): allele-specific complementation; Effect of over-expression on plaque formation by bacteriophage λ in SV1 (groE^+) (in words) (bacteriophage λ (b2cI)): had no effect; Effect of over-expression on bacteriophage T4 growth in groEL strains (in words) (bacteriophage T4 (T4D0) [4]): allele-specific complementation
B5	0.01-0.02	0.07-0.09									Complementation of the groEL673 defect in SV6 (in words) (E. coli SV6 groEL673): complemented
B6											cell death [5]: reduced cell death; proportion of cells with inclusions [5]: reduced slightly but significantly
